Data as given in article PMC3575576.

Biological target: E47 (mouse (endogenous in palatal shelves)) (UniProt P15806)
UniProt P15806, sequence (P15806 whole entry): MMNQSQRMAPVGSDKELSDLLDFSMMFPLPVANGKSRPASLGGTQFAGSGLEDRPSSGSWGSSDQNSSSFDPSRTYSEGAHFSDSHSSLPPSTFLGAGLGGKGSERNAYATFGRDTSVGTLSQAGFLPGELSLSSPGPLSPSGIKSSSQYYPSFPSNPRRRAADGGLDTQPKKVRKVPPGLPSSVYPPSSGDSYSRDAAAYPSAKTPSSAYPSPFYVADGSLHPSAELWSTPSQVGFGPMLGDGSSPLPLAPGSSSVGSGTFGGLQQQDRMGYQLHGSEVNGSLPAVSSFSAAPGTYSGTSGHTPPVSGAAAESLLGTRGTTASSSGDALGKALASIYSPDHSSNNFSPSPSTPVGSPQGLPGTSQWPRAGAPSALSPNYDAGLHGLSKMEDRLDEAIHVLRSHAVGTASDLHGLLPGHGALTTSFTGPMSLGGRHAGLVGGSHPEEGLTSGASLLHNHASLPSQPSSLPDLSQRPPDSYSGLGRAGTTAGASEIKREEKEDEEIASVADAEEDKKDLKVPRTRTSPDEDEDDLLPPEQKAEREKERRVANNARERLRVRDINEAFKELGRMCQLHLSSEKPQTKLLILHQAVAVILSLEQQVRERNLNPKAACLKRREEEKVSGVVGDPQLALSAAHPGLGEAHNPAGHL

luciferase activity of the Snail1 promoter (1.7KSnLuc) in MDCK cells transfected with forced Twist1/E47 (T/E) heterodimers, compared with cells transfected with Twist1 alone: 2 fold
B1: Twist1 (natural protein)
chain: MMQDVSSSPVSPADDSLSNSEEEPDRQQPASGKRGARKRRSSRRSAGGSAGPGGATGGGIGGGDEPGSPAQGKRGKKSAGGGGGGGAGGGGGGGGGSSSGGGSPQSYEELQTQRVMANVRERQRTQSLNEAFAALRKIIPTLPSDKLSKIQTLKLAARYIDFLYQVLQSDELDSKMASCSYVAHERLSYAFSVWRMEGAWSMSASH
